The record followed here is patent US20260125455A1 (CLEVELAND CLINIC FOUNDATION, published 2026).

The term koff denotes a measure of how fast the partners let go of each other. For orientation: EC50 means the concentration at which the effect is half-maximal. Low values mean greater potency, high ones weaker potency. The Kd is the concentration at which binding is half-saturated. Higher therefore signals weaker binding. The term kon denotes the second-order rate constant of association. Lower therefore signals slower complex formation.

In test [1] the target is T1, human complement protein C6 (human, UniProt P13671 22-934).
T1 construct: also called human C6; C6 antigen
Nature of the test: BLI (Octet RED384), antibody on anti-mouse Fc (AMC) biosensors, C6 0.16-10 nM, 1:1 fit, experiment 1; experiment 1. The protocol:
(§1) The binding of the purified chimeric molecules, MoC601 HuG4K and MoC601 HuG1KFab, was also confirmed by ELISA, where the anti-human IgG (Fab-specific) secondary reagent was used. The control mouse antibody bound as previously (EC₅₀ 0.11 nM). The EC₅₀ for purified MoC601 HuG4K (0.27 nM) was similar to that obtained for the MoC601 HuG4K supernatant sample above. […] The EC₅₀ value for the Fab molecule (0.48 nM) was higher than for the antibody, which would be expected since the Fab is unable to bind bivalently to the antigen on the well. A C6-binding assay was also set up on the Octet RED384 instrument. […] However, MoC601 MoG1K could be stably loaded onto anti-mouse Fc (AMC) biosensors. Concentrations of the mouse and chimeric antibodies were adjusted to give similar levels of loading on to the AMC and
(§2) Protein G biosensors respectively in subsequent experiments. There was no non-specific binding of C6 protein to unloaded sensors or sensors loaded with an isotype control antibody. A full kinetic experiment was run for purified MoC601 MoG1K and MoC601 HuG4K antibodies using seven concentrations of C6 (0.16-10 nM) and association and dissociation steps of 20 and 15 minutes respectively. The mouse and chimeric datasets were processed by subtracting the no antigen controls and the data were fitted to a 1:1 binding model. […]
For orientation: In BLI a coated tip is dipped into the sample, and binding shifts an interference pattern.

Test [2] addresses T1, human complement protein C6. Nature of the test: ELISA, C6-coated wells. The protocol:
as §1, with “AMC and […]” for “AMC and”
(An ELISA detects its analyte on a solid surface through an enzyme-linked reagent.)

Test [3] shares this target. Kind of test: ELISA, C6 coated at 0.5 and 1.0 µg/ml, anti-mouse IgG (Fc-specific) HRP. The procedure:
Prior to the generation of the chimeric molecules, the binding ELISA was optimised using purified mouse 1C9 antibody. The ELISA method published in Lin et al., 2020, uses human C6 protein at a concentration of 1 nM (0.12 μg/ml) to coat the ELISA plate wells. Since this is lower than the concentrations generally used, coating concentration of 0.5 μg/ml and 1.0 μg/ml were also tested. Binding of the mouse antibody (designated MoC601 MoG1K) was detected with an HRP-conjugated goat anti-mouse IgG (Fc-specific) reagent in an ELISA assay. […] This is likely to make the assay unsuitable for differentiating between the binding of different humanized variants to C6. In contrast, C6 coating concentrations of 0.5 μg/ml and 1.0 μg/ml yield results which show a clear dose-response to MoC601 MoG1K antibody, with sigmoidal-shaped curves and a consistent EC₅₀ value (0.12 nM). […] Due to lower signal variation, 1.0 μg/ml was used as the C6 coating concentration in subsequent experiments.

Test [4] has the same target. Nature of the test: ELISA, C6-coated wells, same experiment as the chimeric supernatants. The procedure: The chimeric molecules, MoC601 HuG4K and MoC601 HuG1KFab, were tested for C6 binding in the form of expression supernatants. In this experiment, the human molecules were detected with an HRP-conjugated goat anti-human kappa chain reagent, which gave relative low signals. However, the binding of both chimeric molecules to C6 was confirmed. The EC₅₀ value for MoC601 HuG4K (0.43 nM) was higher than that of the mouse antibody (0.07 nM), though this was lower than in previous experiments. A further experiment was performed to find a more suitable anti-human antibody detection reagent. MoC601 HuG4K from expression supernatant was detected with three different secondary antibodies. Both anti-human IgG Fc-specific and Fab-specific detection gave higher signals than the anti-kappa chain reagent but the Fc-specific detection yielded a very low EC₅₀ (0.03 nM).

For test [5] the target is unchanged. Nature of the test: BLI (Octet RED384), antibody on anti-mouse Fc (AMC) biosensors, C6 0.27-5 nM, 1:1 fit, experiment 2. The protocol:
as §1
Protein G biosensors respectively in subsequent experiments. There was no non-specific binding of C6 protein to unloaded sensors or sensors loaded with an isotype control antibody. […] The mouse and chimeric datasets were processed by subtracting the no antigen controls and the data were fitted to a 1:1 binding model. Binding curves giving Req/Rₘₐₓ ratios>90% or showing poor fitting were excluded from analysis. A second full kinetic experiment was performed with an adjusted concentration range (six points, 0.27-5 nM) and an extended dissociation step of 20 minutes.

Test [6] shares this target. Kind of test: BLI (Octet RED384), antibody on anti-mouse Fc (AMC) biosensors, C6 0.16-10 nM, 1:1 fit, experiment 1. The procedure:
as §1, §2

T1 sequence (P13671 22-934 limits assumed): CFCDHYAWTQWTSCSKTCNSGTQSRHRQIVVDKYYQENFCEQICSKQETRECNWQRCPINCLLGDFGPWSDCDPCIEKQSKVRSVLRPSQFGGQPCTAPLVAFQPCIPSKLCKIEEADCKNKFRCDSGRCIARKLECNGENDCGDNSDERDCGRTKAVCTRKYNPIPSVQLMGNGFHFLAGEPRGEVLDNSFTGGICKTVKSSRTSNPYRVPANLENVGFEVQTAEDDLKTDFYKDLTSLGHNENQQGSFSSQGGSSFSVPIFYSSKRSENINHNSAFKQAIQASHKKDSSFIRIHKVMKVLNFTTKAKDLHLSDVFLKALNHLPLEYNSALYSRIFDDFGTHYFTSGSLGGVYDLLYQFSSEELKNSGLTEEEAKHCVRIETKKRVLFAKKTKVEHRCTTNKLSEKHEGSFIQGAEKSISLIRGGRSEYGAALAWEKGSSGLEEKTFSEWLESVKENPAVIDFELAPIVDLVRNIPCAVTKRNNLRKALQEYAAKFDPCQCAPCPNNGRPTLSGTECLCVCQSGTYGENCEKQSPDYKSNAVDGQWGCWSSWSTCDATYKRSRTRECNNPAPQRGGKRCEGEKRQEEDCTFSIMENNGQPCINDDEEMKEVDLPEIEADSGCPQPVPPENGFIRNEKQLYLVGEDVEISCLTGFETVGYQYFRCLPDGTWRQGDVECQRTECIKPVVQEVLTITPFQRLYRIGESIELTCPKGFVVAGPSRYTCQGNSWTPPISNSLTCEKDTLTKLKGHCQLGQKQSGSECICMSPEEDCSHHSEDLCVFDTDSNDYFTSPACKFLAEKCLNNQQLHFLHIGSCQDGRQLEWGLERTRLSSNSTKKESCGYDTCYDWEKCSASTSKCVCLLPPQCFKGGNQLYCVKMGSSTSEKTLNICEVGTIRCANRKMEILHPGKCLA

B1: MoC601 MoG1K (mouse anti-C6 monoclonal antibody 1C9) (antibody, V domains shown)
VH: QVQLQQSGAELVKPGASVKISCKASGYAFSDYWMNWVKQRPGKGLEWIGQIYPGDDDTNYNGKFKGKATLTADKSSSTAYMQLSSLTSEDSAVYFCAREGYYGYTYVEYFDVWGTGTTVTVSS
VL: QIVLTQSPAIMSVSPGEKVTLTCSASSSVSYMHWYQQKSGTSPKRWIYDTSKLASGVPARFSGSGSGTSYSLTISSMEAEDAATYYCQQWTSNPLTFGAGTKLELR
notes: also called mAb 1C9; mouse antibody
In test [1], B1 came in with an off-rate constant (koff) of 0.00031 s⁻¹. In addition, the results for the concentration giving a half-maximal response (EC50) in test [2], in test [3] and in test [4] were 0.11 nM, 0.12 nM and 0.07 nM, respectively. The values for the equilibrium dissociation constant (Kd) in test [5] and in test [6] were 0.29 nM and 0.42 nM, respectively. Further, the on-rate constant (kon) in test [5] turned out to be 690000 M⁻¹ s⁻¹; in test [6], 730000 M⁻¹ s⁻¹.
